In patent publication US8986682B2, “Method to increase the absorption of unsaturated fatty acids by human infants” (Swedish Orphan Biovitrum AB (publ), priority 2010, dated 2015):
Where “and” joins values, the source holds several entries; their conditions need not be identical. Equal entries are not always repeated. Marks after values point to notes of the source that are not given here.

System: preterm infants born before week 32 of gestational age
Experiment: Coefficient of fat absorption (CFA), fat balance of food and stool by gas chromatography, studies BVT.BSSL-020/-021
Type: in vivo, human
Design: Coefficient of Absorption of AA (C20:4 n-6), Minimum: concentration or dose not given beside the values
Conditions: for CFA (overall), LS Mean Difference (rhBSSL − Placebo) / CFA (overall), Maximum / CFA (overall), Mean (SD) / CFA (overall), Median / CFA (overall), Minimum: last 72 h of 7-day treatment
Experimental: Patients were randomized to infant formula/pasteurized breast milk supplemented with rhBSSL at a final concentration of 0.15 g/L, or to infant formula/pasteurized breast milk “supplemented” with sterile water for injection (as placebo) for the first 7 days. After a washout period of 2 days, the patient was “crossed over” to the other treatment regimen during a second 7-day treatment period. Collection of feces samples for CFA assessment were performed during the last 3 days (72 hours) of each treatment period.
The collection of feces for the determination of CFA was performed over a period corresponding to the fat, i.e., formula or milk, ingestion during 72 hours toward the end of each treatment period. Diapers supplied to each site were used for feces collection. During the two treatment periods, a carmine red tracer dye was given as a marker together with a meal (approximately at noon) on Day 4 and Day 13, respectively, and collection of stool commenced with the appearance of the first carmine red marker in the stool. The stool containing the first marker was collected and the date and time of the first stool collected was recorded on the CRF. At 72 hours following administration of the first red marker, the second carmine marker was given, and stool collection continued until the second carmine marker appeared. The stool containing the second marker was not collected, but the date and time of the appearance of the second marker was recorded on the CRF. Diapers were weighed before placement and after removal and the difference in weight was recorded on the CRF. The times of each collection and the elapsed duration of the entire collection period was also recorded on the CRF. The use of ointments for the treatment of skin irritation was prohibited during the stool collection period. Diapers were to be changed frequently during the collection period to keep the skin dry. Patients with skin rash severity leading to discontinuation of the stool collection were to be withdrawn from the study. Specific collection methods were provided in a separate laboratory manual. If applicable, vomit from the stool collection periods of both treatment periods was weighed. A small cloth/linen was weighed and placed under the head of each infant. When the cloth/linen was soiled with vomit, it was removed and re-weighed. If an additional cloth was used to remove vomit from the infant, that cloth was also weighed before and after use. The weight of vomit (total weight minus the weight of the cloth/linen) was recorded on the CRF. All other feed losses, e.g., formula or milk left in bottle, were measured and the amount accounted for in the calculation of the volume of formula consumed at each feeding.
Feces samples, the formula (study 020) and the milk aliquots (study 021) were analyzed by a central laboratory. Individual fatty acids, including the long-chain polyunsaturated fatty acids DHA and AA, were quantified in feces and feed by a gas chromatographic method following extraction by the Folch method. In both studies, the Omegawax 250 column (Supelco) was used for separation of the fatty acids. However, due to co-elution of DHA with nervonic acid (C24:1), which was only present in the breast milk, samples from patients of the per-protocol analysis set from study 021 were also analyzed using a SP-2380 column (Supelco) in order to quantify DHA for those samples from study 021. […] Total lipids were calculated as the sum of the individual fatty acids. (See Section 7.5.1). The same analytical principle was used to determine lipids in each of the batches of formula and aliquots of breast milk used in the study. […]

[1] = BVT.BSSL-021 (pasteurized breast milk), PP
[2] = BVT.BSSL-021 (pasteurized breast milk), PP, 72-hour collection period
[3] = BVT.BSSL-021 Pasteurized milk, PP
[4] = combined analysis, PP, post hoc
[5] = combined data, PP, 72-hour collection, rhBSSL (N = 46)

B1: rhBSSL: recombinant human bile-salt-stimulated lipase, SEQ ID. NO. 1, expressed from recombinant CHO cells; used in both clinical trials (protein, listed as Homo sapiens)
chain: AKLGAVYTEGGFVEGVNKKLGLLGDSVDIFKGIPFAAPTKALENPQPHPGWQGTLKAKNFKKRCLQATITQDSTYGDEDCLYLNIWVPQGRKQVSRDLPVMIWIYGGAFLMGSGHGANFLNNYLYDGEEIATRGNVIVVTFNYRVGPLGFLSTGDANLPGNYGLRDQHMAIAWVKRNIAAFGGDPNNITLFGESAGGASVSLQTLSPYNKGLIRRAISQSGVALSPWVIQKNPLFWAKKVAEKVGCPVGDAARMAQCLKVTDPRALTLAYKVPLAGLEYPMLHYVGFVPVIDGDFIPADPINLYANAADIDYIAGTNNMDGHIFASIDMPAINKGNKKVTEEDFYKLVSEFTITKGLRGAKTTFDVYTESWAQDPSQENKKKTVVDFETDVLFLVPTEIALAQHRANAKSAKTYAYLFSHPSRMPVYPKWVGADHADDIQYVFGKPFATPTGYRPQDRTVSKAMIAYWTNFAKTGDPNMGDSAVPTHWEPYTTENSGYLEITKKMGSSSMKRSLRTNFLRYWTLTYLALPTVTDQEATPVPPTGDSEATPVPPTGDSETAPVPPTGDSGAPPVPPTGDSGAPPVPPTGDSGAPPVPPTGDSGAPPVPPTGDSGAPPVPPTGDSGAPPVPPTGDSGAPPVPPTGDAGPPPVPPTGDSGAPPVPPTGDSGAPPVTPTGDSETAPVPPTGDSGAPPVPPTGDSEAAPVPPTDDSKEAQMPAVIRF
- CFA for C20:3 n-6 (sum of C20:3 n-6 and C20:3 n-3), Difference (rhBSSL − Placebo) [1]: 8.91* %
- CFA for C20:4 n-6 (AA) [1]: 72.10%
- CFA for C20:4 n-6 (AA), Difference (rhBSSL − Placebo) [1]: 10.82* %
- CFA for C22:6 n-3 (DHA) [1]: 78.49%
- CFA for C22:6 n-3 (DHA), Difference (rhBSSL − Placebo) [1]: 4.72* %
- CFA for C24:1 [1]: 36.85%
- CFA for C24:1, Difference (rhBSSL − Placebo) [1]: 7.68%
- Total Amount of Fat in Stool, Maximum [2]: 13.3 g
- Total Amount of Fat in Stool, Mean (SD) [2]: 6.16 g and 6.16 (3.550) g
- Total Amount of Fat in Stool, Median [2]: 4.99 g
- Total Amount of Fat in Stool, Minimum [2]: 0.9 g
- Coefficient of absorption of the sum of all LCPUFAs, LS mean [3]: 70.2%
- Coefficient of absorption of the sum of all LCPUFAs, LS mean difference (rhBSSL-Placebo) [3]: 8.02%
- Coefficient of absorption of the sum of all polyunsaturated fatty acids, LS mean [3]: 70.7%
- Coefficient of absorption of the sum of all polyunsaturated fatty acids, LS mean difference (rhBSSL-Placebo) [3]: 6.92%
- Coefficient of absorption of the sum of all saturated fatty acids, LS mean [3]: 66.1%
- Coefficient of absorption of the sum of all saturated fatty acids, LS mean difference (rhBSSL-Placebo) [3]: 4.36%
- Coefficient of absorption of the sum of all unsaturated fatty acids, LS mean [3]: 70.6%
- Coefficient of absorption of the sum of all unsaturated fatty acids, LS mean difference (rhBSSL-Placebo) [3]: 5.10%
- CFA for C12:0 [4]: 88.86%
- CFA for C12:0, Difference (rhBSSL − Placebo) [4]: 2.42%
- CFA for C14:0 (myristic acid) [4]: 76.15%
- CFA for C14:0 (myristic acid), Difference (rhBSSL − Placebo) [4]: 4.81%
- CFA for C16:0 [4]: 55.49%
- CFA for C16:0, Difference (rhBSSL − Placebo) [4]: 2.61%
- CFA for C18:0 [4]: 44.28%
- CFA for C18:0, Difference (rhBSSL − Placebo) [4]: 1.51%
- CFA for C18:1 [4]: 73.66%
- CFA for C18:1, Difference (rhBSSL − Placebo) [4]: 3.65%
- CFA for C18:2 n-6 (linoleic acid) [4]: 77.49%
- CFA for C18:2 n-6 (linoleic acid), Difference (rhBSSL − Placebo) [4]: 5.79%
- CFA for C18:3 n-3 (alpha-linolenic acid) [4]: 76.31%
- CFA for C18:3 n-3 (alpha-linolenic acid), Difference (rhBSSL − Placebo) [4]: 3.66%
- Total Amount of Fat in Stool, Maximum [5]: 15.0 g
- Total Amount of Fat in Stool, Mean (SD) [5]: 7.50 g and 7.50 (3.635) g
- Total Amount of Fat in Stool, Median [5]: 7.05 g
- Total Amount of Fat in Stool, Minimum [5]: 0.9 g
- Total Amount of Fat in Stool, Mean (SD) (combined data, PP, second column also headed rhBSSL (N = 46), placebo according to b324): 8.36 (4.018) g
- Coefficient of Absorption of AA (C20:4 n-6), LS Mean (combined studies 020+021, FAS): 77.60%
- Coefficient of Absorption of AA (C20:4 n-6), LS Mean Difference (rhBSSL − Placebo) (combined studies 020+021, FAS): 8.70%
- Coefficient of Absorption of AA (C20:4 n-6), Maximum (combined studies 020+021, FAS): 100.0%
- Coefficient of Absorption of AA (C20:4 n-6), Mean (SD) (combined studies 020+021, FAS): 77.88 (17.628) %
- Coefficient of Absorption of AA (C20:4 n-6), Median (combined studies 020+021, FAS): 81.28%
- Coefficient of Absorption of AA (C20:4 n-6), Minimum (combined studies 020+021, FAS): 26.6%
- Coefficient of Absorption of DHA (C22:6 n-3), LS Mean (combined studies 020+021, FAS): 77.91%
- Coefficient of Absorption of DHA (C22:6 n-3), LS Mean Difference (rhBSSL − Placebo) (combined studies 020+021, FAS): 6.24%
- Coefficient of Absorption of DHA (C22:6 n-3), Maximum (combined studies 020+021, FAS): 100.0%
- Coefficient of Absorption of DHA (C22:6 n-3), Mean (SD) (combined studies 020+021, FAS): 77.97 (16.251) %
- Coefficient of Absorption of DHA (C22:6 n-3), Median (combined studies 020+021, FAS): 81.22%
- Coefficient of Absorption of DHA (C22:6 n-3), Minimum (combined studies 020+021, FAS): 26.8%
- CFA (overall), LS Mean Difference (rhBSSL − Placebo) (combined studies 020+021, FAS): 3.70%
- CFA (overall), Maximum (combined studies 020+021, FAS): 93.2%
- CFA (overall), Mean (SD) (combined studies 020+021, FAS): 67.80 (16.663) %
- CFA (overall), Median (combined studies 020+021, FAS): 71.09%
- CFA (overall), Minimum (combined studies 020+021, FAS): 11.7%
- Coefficient of Absorption of AA (C20:4 n-6), LS Mean (combined studies 020+021, PP): 77.36%
- Coefficient of Absorption of AA (C20:4 n-6), LS Mean Difference (rhBSSL − Placebo) (combined studies 020+021, PP): 8.63%
- Coefficient of Absorption of AA (C20:4 n-6), Maximum (combined studies 020+021, PP): 100.0%
- Coefficient of Absorption of AA (C20:4 n-6), Mean (SD) (combined studies 020+021, PP): 78.01 (16.881) %
- Coefficient of Absorption of AA (C20:4 n-6), Median (combined studies 020+021, PP): 81.01%
- Coefficient of Absorption of AA (C20:4 n-6), Minimum (combined studies 020+021, PP): 26.6%
- Coefficient of Absorption of DHA (C22:6 n-3), LS Mean (combined studies 020+021, PP): 79.83%
- Coefficient of Absorption of DHA (C22:6 n-3), LS Mean Difference (rhBSSL − Placebo) (combined studies 020+021, PP): 5.80%
- Coefficient of Absorption of DHA (C22:6 n-3), Maximum (combined studies 020+021, PP): 100.0%
- Coefficient of Absorption of DHA (C22:6 n-3), Mean (SD) (combined studies 020+021, PP): 79.76 (14.075) %
- Coefficient of Absorption of DHA (C22:6 n-3), Median (combined studies 020+021, PP): 82.90%
- Coefficient of Absorption of DHA (C22:6 n-3), Minimum (combined studies 020+021, PP): 42.2%
- CFA (overall), LS Mean Difference (rhBSSL − Placebo) (combined studies 020+021, PP): 3.56%
- CFA (overall), Maximum (combined studies 020+021, PP): 93.2%
- CFA (overall), Mean (SD) (combined studies 020+021, PP): 69.08% and 69.08 (14.683) %
- CFA (overall), Median (combined studies 020+021, PP): 71.83%
- CFA (overall), Minimum (combined studies 020+021, PP): 31.2%
- Relative increase of overall CFA compared to the LS mean for placebo (combined studies, PP): 5.4%
- Relative increase of overall CFA compared to the LS mean for placebo (formula-fed infants (BVT.BSSL-020), PP): 3.1%
